Results reported in PMC7049166 (Proceedings of the National Academy of Sciences of the …, 2020).
Several values for one entry are separate records, joined by “and”; a condition that tells them apart may be missing. Equal values may be shown once.

What was measured:
[1] = molecular target: the molecule itself; experiment: cell-based or functional assay
crystal structure = molecular target: the molecule itself; experiment: crystal structure
SEC-MALS = molecular target: the molecule itself; experiment: SEC-MALS
AUC = molecular target: the molecule itself; experiment: AUC
cross-linking = molecular target: the molecule itself; experiment: cross-linking

B1: S. cerevisiae short Mgm1 (s-Mgm1), truncated version, residues 184-881 (domain or fragment, UniProt P32266 184-881, looked up)
chain: MLNLTKQMIEIRTILNKVDSSSAHLTLPSIVVIGSQSSGKSSVLESIVGREFLPKGSNMVTRRPIELTLVNTPNSNNVTADFPSMRLYNIKDFKEVKRMLMELNMAVPTSEAVSEEPIQLTIKSSRVPDLSLVDLPGYIQVEAADQPIELKTKIRDLCEKYLTAPNIILAISAADVDLANSSALKASKAADPKGLRTIGVITKLDLVDPEKARSILNNKKYPLSMGYVGVITKTPSSINRKHLGLFGEAPSSSLSGIFSKGQHGQSSGEENTNGLKQIVSHQFEKAYFKENKKYFTNCQVSTKKLREKLIKILEISMSNALEPTSTLIQQELDDTSYLFKVEFNDRHLTPKSYLLNNIDVLKLGIKEFQEKFHRNELKSILRAELDQKVLDVLATRYWKDDNLQDLSSSKLESDTDMLYWHKKLELASSGLTKMGIGRLSTMLTTNAILKELDNILESTQLKNHELIKDLVSNTAINVLNSKYYSTADQVENCIKPFKYEIDLEERDWSLARQHSINLIKEELRQCNSRYQAIKNAVGSKKLANVMGYLENESNLQKETLGMSKLLLERGSEAIFLDKRCKVLSFRLKMLKNKCHSTIEKDRCPEVFLSAVSDKLTSTAVLFLNVELLSDFFYNFPIELDRRLTLLGDEQVEMFAKEDPKISRHIELQKRKELLELALEKIDSILVFKKSYKGVSKNL
- stimulation of s-Mgm1 GTPase activity by liposomes with 10% or 20% cardiolipin [1]: 8 fold
- stoichiometry N (crystal structure): 3
- stoichiometry N (SEC-MALS): 2

B2: s-Mgm1 R712A/E751A mutant (domain or fragment, S. cerevisiae, UniProt P32266 184-881, looked up)
chain: MLNLTKQMIEIRTILNKVDSSSAHLTLPSIVVIGSQSSGKSSVLESIVGREFLPKGSNMVTRRPIELTLVNTPNSNNVTADFPSMRLYNIKDFKEVKRMLMELNMAVPTSEAVSEEPIQLTIKSSRVPDLSLVDLPGYIQVEAADQPIELKTKIRDLCEKYLTAPNIILAISAADVDLANSSALKASKAADPKGLRTIGVITKLDLVDPEKARSILNNKKYPLSMGYVGVITKTPSSINRKHLGLFGEAPSSSLSGIFSKGQHGQSSGEENTNGLKQIVSHQFEKAYFKENKKYFTNCQVSTKKLREKLIKILEISMSNALEPTSTLIQQELDDTSYLFKVEFNDRHLTPKSYLLNNIDVLKLGIKEFQEKFHRNELKSILRAELDQKVLDVLATRYWKDDNLQDLSSSKLESDTDMLYWHKKLELASSGLTKMGIGRLSTMLTTNAILKELDNILESTQLKNHELIKDLVSNTAINVLNSKYYSTADQVENCIKPFKYEIDLEERDWSLARQHSINLIKEELRQCNSAYQAIKNAVGSKKLANVMGYLENESNLQKETLGMSKLLLARGSEAIFLDKRCKVLSFRLKMLKNKCHSTIEKDRCPEVFLSAVSDKLTSTAVLFLNVELLSDFFYNFPIELDRRLTLLGDEQVEMFAKEDPKISRHIELQKRKELLELALEKIDSILVFKKSYKGVSKNL
- binding result (AUC): binds

B3: HA-tagged s-Mgm1 S397C/E751C mutant (with 4CS mutations C341S, C676S, C709S, C763S) (domain or fragment, S. cerevisiae, UniProt P32266 184-881, looked up)
chain: MLNLTKQMIEIRTILNKVDSSSAHLTLPSIVVIGSQSSGKSSVLESIVGREFLPKGSNMVTRRPIELTLVNTPNSNNVTADFPSMRLYNIKDFKEVKRMLMELNMAVPTSEAVSEEPIQLTIKSSRVPDLSLVDLPGYIQVEAADQPIELKTKIRDLSEKYLTAPNIILAISAADVDLANSSALKASKAADPKGLRTIGVITKLDLVDPEKARCILNNKKYPLSMGYVGVITKTPSSINRKHLGLFGEAPSSSLSGIFSKGQHGQSSGEENTNGLKQIVSHQFEKAYFKENKKYFTNCQVSTKKLREKLIKILEISMSNALEPTSTLIQQELDDTSYLFKVEFNDRHLTPKSYLLNNIDVLKLGIKEFQEKFHRNELKSILRAELDQKVLDVLATRYWKDDNLQDLSSSKLESDTDMLYWHKKLELASSGLTKMGIGRLSTMLTTNAILKELDNILESTQLKNHELIKDLVSNTAINVLNSKYYSTADQVENSIKPFKYEIDLEERDWSLARQHSINLIKEELRQSNSRYQAIKNAVGSKKLANVMGYLENESNLQKETLGMSKLLLCRGSEAIFLDKRSKVLSFRLKMLKNKCHSTIEKDRCPEVFLSAVSDKLTSTAVLFLNVELLSDFFYNFPIELDRRLTLLGDEQVEMFAKEDPKISRHIELQKRKELLELALEKIDSILVFKKSYKGVSKNL
- stoichiometry N (cross-linking): 2 and 3
